Source: patent US20120090043A1, “TARGETS FOR RETROVIRUS ASSOCIATED DISEASES” (priority 2009, published 2012)

B1: SF3A3: human host interactor protein, Gene ID 10946, expressed from transfected ORF vector (protein)
chain: METILEQQRRYHEEKERLMDVMAKEMLTKKSTLRDQINSDHRTRAMQDRYMEVSGNLRDLYDDKDGLRKEELNAISGPNEFAEFYNRLKQIKEFHRKHPNEICVPMSVEFEELLKARENPSEEAQNLVEFTDEEGYGRYLDLHDCYLKYINLKASEKLDYITYLSIFDQLFDIPKERKNAEYKRYLEMLLEYLQDYTDRVKPLQDQNELFGKIQAEFEKKWENGTFPGWPKETSSALTHAGAHLDLSAFSSWEELASLGLDRLKSALLALGLKCGGTLEERAQRLFSTKGKSLESLDTSLFAKNPKSKGTKRDTERNKDIAFLEAQIYEYVEILGEQRHLTHENVQRKQARTGEEREEEEEEQISESESEDEENEIIYNPKNLPLGWDGKPIPYWLYKLHGLNINYNCEICGNYTYRGPKAFQRHFAEWRHAHGMRCLGIPNTAHFANVTQIEDAVSLWAKLKLQKASERWQPDTEEEYEDSSGNVVNKKTYEDLKRQGLL
B2: SP100: human host interactor protein, Gene ID 6672, expressed from transfected ORF vector (protein)
chain: MAGGGGDLSTRRLNECISPVANEMNHLPAHSHDLQRMFTEDQGVDDRLLYDIVFKHFKRNKVEISNAIKKTFPFLEGLRDRDLITNKMFEDSQDSCRNLVPVQRVVYNVLSELEKTFNLPVLEALFSDVNMQEYPDLIHIYKGFENVIHDKLPLQESEEEEREERSGLQLSLEQGTGENSFRSLTWPPSGSPSHAGTTPPENGLSEHPCETEQINAKRKDTTSDKDDSLGSQQTNEQCAQKAEPTESCEQIAVQVNNGDAGREMPCPLPCDEESPEAELHNHGIQINSCSVRLVDIKKEKPFSNSKVECQAQARTHHNQASDIIVISSEDSEGSTDVDEPLEVFISAPRSEPVINNDNPLESNDEKEGQEATCSRPQIVPEPMDFRKLSTFRESFKKRVIGQDHDFSESSEEEAPAEASSGALRSKHGEKAPMTSRSTSTWRIPSRKRRFSSSDFSDLSNGEELQETCSSSLRRGSGSQPQEPENKKCSCVMCFPKGVPRSQEARTESSQASDMMDTMDVENNSTLEKHSGKRRKKRRHRSKVNGLQRGRKKDRPRKHLTLNNKVQKKRWQQRGRKANTRPLKRRRKRGPRIPKDENINFKQSELPVTCGEVKGTLYKERFKQGTSKKCIQSEDKKWFTPREFEIEGDRGASKNWKLSIRCGGYTLKVLMENKFLPEPPSTRKKRILESHNNTLVDPCEEHKKKNPDASVKFSEFLKKCSETWKTIFAKEKGKFEDMAKADKAHYEREMKTYIPPKGEKKKKFKDPNAPKRPPLAFFLFCSEYRPKIKGEHPGLSIDDVVKKLAGMWNNTAAADKQFYEKKAAKLKEKYKKDIAAYRAKGKPNSAKKRVVKAEKSKKKKEEEEDEEDEQEEENEEDDDK
B3: TRAF2: human host interactor protein, Gene ID 7186, expressed from transfected ORF vector (protein)
chain: MAAASVTPPGSLELLQPGFSKTLLGTKLEAKYLCSACRNVLRRPFQAQCGHRYCSFCLASILSSGPQNCAACVHEGIYEEGISILESSSAFPDNAARREVESLPAVCPSDGCTWKGTLKEYESCHEGRCPLMLTECPACKGLVRLGEKERHLEHECPERSLSCRHCRAPCCGADVKAHHEVCPKFPLTCDGCGKKKIPREKFQDHVKTCGKCRVPCRFHAIGCLETVEGEKQQEHEVQWLREHLAMLLSSVLEAKPLLGDQSHAGSELLQRCESLEKKTATFENIVCVLNREVERVAMTAEACSRQHRLDQDKIEALSSKVQQLERSIGLKDLAMADLEQKVLEMEASTYDGVFIWKISDFARKRQEAVAGRIPAIFSPAFYTSRYGYKMCLRIYLNGDGTGRGTHLSLFFVVMKGPNDALLRWPFNQKVTLMLLDQNNREHVIDAFRPDVTSSSFQRPVNDMNIASGCPLFCPVSKMEAKNSYVRDDAIFIKAIVDLTGL
B4: TEX11: human host interactor protein, Gene ID 56159, expressed from transfected ORF vector (protein)
chain: MISAHCNLRLLCSSDSSASASQVAGTTEVVENLVTNDNSPNIPEAIDRLFSDIANINRESMAEITDIQIEEMAVNLWNWALTIGGGWLVNEEQKIRLHYVACKLLSMCEASFASEQSIQRLIMMNMRIGKEWLDAGNFLIADECFQAAVASLEQLYVKLIQRSSPEADLTMEKITVESDHFRVLSYQAESAVAQGDFQRASMCVLQCKDMLMRLPQMTSSLHHLCYNFGVETQKNNKYEESSFWLSQSYDIGKMDKKSTGPEMLAKVLRLLATNYLDWDDTKYYDKALNAVNLANKEHLSSPGLFLKMKILLKGETSNEELLEAVMEILHLDMPLDFCLNIAKLLMDHERESVGFHFLTIIHERFKSSENIGKVLILHTDMLLQRKEELLAKEKIEEIFLAHQTGRQLTAESMNWLHNILWRQAASSFEVQNYTDALQWYYYSLRFYSTDEMDLDFTKLQRNMACCYLNLQQLDKAKEAVAEAERHDPRNVFTQFYIFKIAVIEGNSERALQAIITLENILTDEESEDNDLVAERGSPTMLLSLAAQFALENGQQIVAEKALEYLAQHSEDQEQVLTAVKCLLRFLLPKIAEMPESEDKKKEMDRLLTCLNRAFVKLSQPFGEEALSLESRANEAQWFRKTAWNLAVQCDKDPVMMREFFILSYKMSQFCPSDQVILIARKTCLLMAVAVDLEQGRKASTAFEQTMFLSRALEEIQTCNDIHNFLKQTGTFSNDSCEKLLLLYEFEVRAKLNDPLLESFLESVWELPHLETKTFETIAIIAMEKPAHYPLIALKALKKALLLYKKEEPIDISQYSKCMHNLVNLSVPDGASNVELCPLEEVWGYFEDALSHISRTKDYPEMEILWLMVKSWNTGVLMFSRSKYASAEKWCGLALRFLNHLTSFKESYETQMNMLYSQLVEALSNNKGPVFHEHGYWSKSD
B5: SPAG5: human host interactor protein, Gene ID 10615, expressed from transfected ORF vector (protein)
chain: MWRVKKLSLSLSPSPQTGKPSMRTPLRELTLQPGALTNSGKRSPACSSLTPSLCKLGLQEGSNNSSPVDFVNNKRTDLSSEHFSHSSKWLETCQHESDEQPLDPIPQISSTPKTSEEAVDPLGNYMVKTIVLVPSPLGQQQDMIFEARLDTMAETNSISLNGPLRTDDLVREEVAPCMGDRFSEVAAVSEKPIFQESPSHLLEESPPNPCSEQLHCSKESLSSRTEAVREDLVPSESNAFLPSSVLWLSPSTALAADFRVNHVDPEEEIVEHGAMEEREMRFPTHPKESETEDQALVSSVEDILSTCLTPNLVEMESQEAPGPAVEDVGRILGSDTESWMSPLAWLEKGVNTSVMLENLRQSLSLPSMLRDAAIGTTPFSTCSVGTWFTPSAPQEKSTNTSQTGLVGTKHSTSETEQLLCGRPPDLTALSRHDLEDNLLSSLVILEVLSRQLRDWKSQLAVPHPETQDSSTQTDTSHSGITNKLQHLKESHEMGQALQQARNVMQSWVLISKELISLLHLSLLHLEEDKTTVSQESRRAETLVCCCFDLLKKLRAKLQSLKAEREEARHREEMALRGKDAAEIVLEAFCAHASQRISQLEQDLASMREFRGLLKDAQTQLVGLHAKQEELVQQTVSLTSTLQQDWRSMQLDYTTWTALLSRSRQLTEKLTVKSQQALQERDVAIEEKQEVSRVLEQVSAQLEECKGQTEQLELENSRLATDLRAQLQILANMDSQLKELQSQHTHCAQDLAMKDELLCQLTQSNEEQAAQWQKEEMALKHMQAELQQQQAVLAKEVRDLKETLEFADQENQVAHLELGQVECQLKTTLEVLRERSLQCENLKDTVENLTAKLASTIADNQEQDLEKTRQYSQKLGLLTEQLQSLTLFLQTKLKEKTEQETLLLSTACPPTQEHPLPNDRTFLGSILTAVADEEPESTPVPLLGSDKSAFTRVASMVSLQPAETPGMEESLAEMSIMTTELQSLCSLLQESKEEAIRTLQRKICELQARLQAQEEQHQEVQKAKEADIEKLNQALCLRYKNEKELQEVIQQQNEKILEQIDKSGELISLREEVTHLTRSLRRAETETKVLQEALAGQLDSNCQPMATNWIQEKVWLSQEVDKLRVMFLEMKNEKEKLMIKFQSHRNILEENLRRSDKELEKLDDIVQHIYKTLLSIPEVVRGCKELQGLLEFLS
B6: C16orf33: human host interactor protein, Gene ID 79622, expressed from transfected ORF vector (protein)
chain: MDVFQEGLAMVVQDPLLCDLPIQVTLEEVNSQIALEYGQAMTVRVCKMDGEVMPVVVVQSATVLDLKKAIQRYVQLKQEREGGIQHISWSYVWRTYHLTSAGEKLTEDRKKLRDYGIRNRDEVSFIKKLRQK
B7: TRIP6: human host interactor protein, Gene ID 7205, expressed from transfected ORF vector (protein)
chain: MSGPTWLPPKQPEPARAPQGRAIPRGTPGPPPAHGAALQPHPRVNFCPLPSEQCYQAPGGPEDRGPAWVGSHGVLQHTQGLPADRGGLRPGSLDAEIDLLSSTLAELNGGRGHASRRPDRQAYEPPPPPAYRTGSLKPNPASPLPASPYGGPTPASYTTASTPAGPAFPVQVKVAQPVRGCGPPRRGASQASGPLPGPHFPLPGRGEVWGPGYRSQREPGPGAKEEAAGVSGPAGRGRGGEHGPQVPLSQPPEDELDRLTKKLVHDMNHPPSGEYFGQCGGCGEDVVGDGAGVVALDRVFHVGCFVCSTCRAQLRGQHFYAVERRAYCEGCYVATLEKCATCSQPILDRILRAMGKAYHPGCFTCVVCHRGLDGIPFTVDATSQIHCIEDFHRKFAPRCSVCGGAIMPEPGQEETVRIVALDRSFHIGCYKCEECGLLLSSEGECQGCYPLDGHILCKACSAWRIQELSATVTTDC

Tested on: HIV-1 LTR promoter transactivation by HIV-1 Tat
Assay: Transactivation assay, HIV-1 LTR luciferase reporter with HIV-1 Tat
Type: cell-based
Conditions: HEK293 cells co-transfected with pHIV1LTR-Luc, HIV-1 Tat and the human ORF; relative luciferase activity 24 h post-transfection; positive if >=2 or <=0.5 and p<0.05
Text: The plasmids pHIV1LTR-Luc or pHTLV1LTR-Luc containing a luciferase reporter gene under the control of the HIV-1 or HTLV-1 LTR promoters and plasmids expressing either HIV-1 Tat or HTLV-1 Tax and each human ORF found to interact with viral proteins were transfected into 10^4 HEK293 cells using the calcium phosphate method. Twenty-four hours post-transfection, cells were washed three times with PBS, lysed and luciferase activities determined from two independent transfection experiments in triplicate. We computed a paired t-test to assess the difference of the means between samples with and without the human interactor. For a trial to be considered positive, the relative luciferase activities has to be >=2 or <=0.5, and the p-value of the t-test<0.05.
Many HIV/HTLV-human interactions in our data set (130/212) involved the retroviral transactivator proteins HTLV-1 Tax (57/212), HTLV-2 Tax2 (49/212), HIV-1 Tat (10/212) and HIV-2 Tat (14/212). Human proteins interacting with viral transactivators likely influence Tat or Tax transactivation. Expression vectors encoding human ORFs and HIV-1 Tat or HTLV-1 Tax proteins were tested in a transactivation reporter assay against reporter plasmids harboring HIV-1 or HTLV-1 viral promoter sequences cloned upstream of the luciferase reporter gene. In the controls Tat or Tax respectively activated HIV or HTLV LTR-directed gene expression. Co-transfection of interacting human ORFs identified 71 proteins (54% of the 131 human targets in our data set) that regulated HIV (26.7% of targets), HTLV (37.4% of targets) or both (9.9% of targets) LTR promoter activation by Tat or Tax (see Tables 7 and 8; Table 13 below containing quantitative data on the regulation of transactivation). Wherever not expressly specified, constructs used herein were generally made by sub-cloning entry clones from the ORFeome V3.1 into suitable destination vectors.

Row | Molecule | HIV_LTR transactiv.
1 | B1 | 0.49 fold change
2 | B2 | 3.69 fold change
3 | B3 | 0.22 fold change
4 | B4 | 4.41 fold change
5 | B5 | 0.16 fold change
6 | B6 | 2.50 fold change
7 | B7 | 2.87 fold change
